Tests used:
Test in all cases: other fluorescence titration; Ca2+ titration at saturating CaM: 0.5 µM FRET biosensor, 2 µM X-Rhod5F, 0.1 mg/mL BSA, 0.25 mM Br2BAPTA (3 mM BAPTA and 700 µM CaM for the SMD1 biosensors), 25 mM Tris, 100 mM KCl, pH 7.5, 22°C; start nominally Ca2+-free; free Ca2+ from X-Rhod5F; EC50(Ca2+) from Hill fits
BSGPER_(150–175) (human) = BSGPER_(150–175) (human) (UniProt Q99527)
BSGPER_(242–259) (human) = BSGPER_(242–259) (human) (UniProt Q99527)
BSGPER_(330–351) (human) = BSGPER_(330–351) (human) (UniProt Q99527)
BSGPER_(83–93) (human) = BSGPER_(83–93) (human) (UniProt Q99527)

Calmodulin (CaM), recombinant, from the rat CaMI gene (from UniProt P0DP29 1-149) (natural protein)
EC50(Ca2+) of complex formation (BSGPER_(150–175) (human)): 2380 nM | EC50(Ca2+) of complex formation (BSGPER_(242–259) (human)): 5150 nM | EC50(Ca2+) of complex formation (BSGPER_(330–351) (human)): 750 nM | EC50(Ca2+) of complex formation, species 1 (BSGPER_(83–93) (human)): 130 nM | EC50(Ca2+) of complex formation, species 2 (BSGPER_(83–93) (human)): 3710 nM

From article PMC3931812
